Data published in FireProtDB (doi:10.1021/bi00164a007).

Settings: Saccharomyces cerevisiae (strain ATCC 204508 / S288c), CD, reversible: yes; for denaturant m value / denaturant midpoint (higher = more stable) / unfolding free energy: 27 °C, GdnHCl
[1] = pH 4.6, glycine 40 mM, structure 1YCC
[2] = pH 4.6, Thermal, Sodium acetate 50 mM, structure 1YCC
[3] = pH 6, Thermal, Sodium phosphate 50 mM, structure 1YCC
[4] = pH 7.2, Potassium phosphate 50 mM, structure 1YCC
[5] = pH 6, Thermal, Sodium phosphate 50 mM
[6] = pH 7.2, Potassium phosphate 50 mM

Chain of Cytochrome c isoform 1 wild type, P00044 (P00044 whole entry, canonical isoform): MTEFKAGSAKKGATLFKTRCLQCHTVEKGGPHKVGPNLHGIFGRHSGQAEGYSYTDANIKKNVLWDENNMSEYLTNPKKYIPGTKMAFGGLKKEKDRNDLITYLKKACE
Chain of Cytochrome c isoform 1 V26C, P00044 (P00044 whole entry V26C, canonical isoform): as the sequence (P00044 whole entry, canonical isoform) above, with V26C counted along it

Cytochrome c isoform 1 V26C, P00044
denaturant m value [1]: 2.7 kcal/mol/M
denaturant midpoint (higher = more stable) [1]: 1.1 M
unfolding free energy [1]: 2.9 kcal/mol
Tm [2]: 53.4 °C
unfolding enthalpy (van 't Hoff) [2]: 64.5 kcal/mol
Tm [3]: 58.5 °C
change of melting temperature, mutant - wild type (higher = more stable) [3]: 6.8 °C
unfolding enthalpy (van 't Hoff) [3]: 63.8 kcal/mol
denaturant m value [4]: 2.6 kcal/mol/M
denaturant midpoint (higher = more stable) [4]: 1.2 M
unfolding free energy [4]: 3 kcal/mol

Cytochrome c isoform 1 wild type, P00044
Tm [5]: 51.7 °C
unfolding enthalpy (van 't Hoff) [5]: 84.5 kcal/mol
denaturant m value [6]: 4.6 kcal/mol/M
denaturant midpoint (higher = more stable) [6]: 0.9 M
unfolding free energy [6]: 4.1 kcal/mol
